Data: patent US20060134638, “Error reduction in automated gene synthesis” (Blue Heron Biotechnology, Inc., published 2006)

T1: MutS (TaqMutS) (Thermus aquaticus, UniProt Q56215 Q56215:1-811)
T1 sequence: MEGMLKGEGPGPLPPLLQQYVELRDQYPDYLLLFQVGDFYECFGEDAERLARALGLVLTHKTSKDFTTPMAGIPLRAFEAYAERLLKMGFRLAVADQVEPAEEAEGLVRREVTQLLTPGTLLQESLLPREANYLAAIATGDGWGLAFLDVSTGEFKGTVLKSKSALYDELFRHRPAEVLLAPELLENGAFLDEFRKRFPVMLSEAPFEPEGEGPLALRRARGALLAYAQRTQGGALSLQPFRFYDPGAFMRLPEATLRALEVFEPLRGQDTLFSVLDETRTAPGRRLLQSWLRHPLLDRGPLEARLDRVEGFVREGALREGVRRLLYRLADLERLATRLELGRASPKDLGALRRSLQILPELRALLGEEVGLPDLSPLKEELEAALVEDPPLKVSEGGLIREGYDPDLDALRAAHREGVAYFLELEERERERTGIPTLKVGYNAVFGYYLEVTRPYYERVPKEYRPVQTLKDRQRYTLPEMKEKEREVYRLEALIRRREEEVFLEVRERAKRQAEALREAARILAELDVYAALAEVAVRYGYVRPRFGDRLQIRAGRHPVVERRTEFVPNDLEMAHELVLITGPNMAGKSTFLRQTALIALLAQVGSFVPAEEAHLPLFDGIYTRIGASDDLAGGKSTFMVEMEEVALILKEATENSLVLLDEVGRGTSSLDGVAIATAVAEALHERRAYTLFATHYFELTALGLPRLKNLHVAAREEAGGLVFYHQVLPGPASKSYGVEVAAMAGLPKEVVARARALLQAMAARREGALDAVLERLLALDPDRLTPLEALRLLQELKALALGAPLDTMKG


Legend:
MutS (TaqMutS) [1] = molecular target: T1, MutS (TaqMutS); conditions: error frequency 1/212 to 1/1593; 500 nM MutS, 40 nM DNA, 60 C
MutS (TaqMutS) [2] = molecular target: T1, MutS (TaqMutS); assay: homoduplex recovered in flow-through; white:blue ratio shifted 1:1 to 60:1; conditions: chain copies: 2; perfect duplex
Experimental: The 410 bp white:blue test heteroduplex was used to determine the best conditions for separation of a model A or T deletion heteroduplex from perfectly matched homoduplex molecules using TaqMutS. A defined ratio of heteroduplex and homoduplex 410 bp fragments were incubated with TaqMutS at 60° C. for 20 minutes and subsequently passed through enzyme removal columns (Micropure-EZ enzyme removers from Millipore). These columns are marketed as quick alternatives to phenol/chloroform methods for removing proteins from DNA. The aim was to retain the TaqMutS protein bound to heteroduplex DNA in the column and retrieve the homoduplex DNA in the flow-through.

Molecule | activity (% errors removed) (MutS (TaqMutS) [1]) | binding result (MutS (TaqMutS) [2])
354 bp synthetic DNA, error-containing population | > 85 | 
410 bp AflIII/EcoRI homoduplex (pUC121) (dsDNA) DNA 1: GAAGAGCGCCC DNA 2: GGGCGCTCTTC |  | no binding
